# Assay results reported in patent US20230265151A1, “GIP/GLP1 CO-AGONIST COMPOUNDS” (priority 2020, published 2023).
# Positions count from the first letter of the chain named.
# T1: human GIP receptor (human, UniProt P48546 22-466)
# T1 sequence (looked up): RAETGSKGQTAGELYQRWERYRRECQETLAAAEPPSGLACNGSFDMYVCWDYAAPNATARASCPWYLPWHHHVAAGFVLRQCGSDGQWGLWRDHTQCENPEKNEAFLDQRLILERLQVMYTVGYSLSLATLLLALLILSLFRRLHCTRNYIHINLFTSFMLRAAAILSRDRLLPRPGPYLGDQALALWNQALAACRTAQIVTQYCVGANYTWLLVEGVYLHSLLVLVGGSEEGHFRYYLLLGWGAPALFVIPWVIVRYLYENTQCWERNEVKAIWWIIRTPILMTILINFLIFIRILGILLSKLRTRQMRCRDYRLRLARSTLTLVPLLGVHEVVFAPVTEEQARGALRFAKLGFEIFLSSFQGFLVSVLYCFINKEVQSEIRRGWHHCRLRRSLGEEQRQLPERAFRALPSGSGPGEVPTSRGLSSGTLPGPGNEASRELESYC
# T2: human GIP receptor (human, UniProt P48546 22-466)
# T2 construct: whole, on cells; also called hGIPR; human glucose-dependent insulinotropic polypeptide receptor
# T2 sequence (looked up): T1 sequence (looked up)
# B1: Example 18 (peptide)
# peptide: YXEGTXTSDXSIXLDXKAQXEFIXXLIEGKPSSGAPPPS
# modifications: Aib2, αMeF(2F)6, 4Pal10, αMeL13, Orn16, Aib20, D-Glu24, αMeY25, K17 and K30: K(AEEA2-(γ-Glu)-CO-(CH2)12-CO2H), C-terminal NH2
# B2: Example 16 (peptide)
# peptide: B1 peptide with X24K, K30G
# modifications: Aib2, αMeF(2F)6, 4Pal10, αMeL13, Orn16, Aib20, αMeY25, K17 and K24: K(AEEA2-(γ-Glu)-CO-(CH2)12-CO2H), C-terminal NH2
# B3: Example 147 (peptide)
# peptide: B1 peptide with F22X, K30G, P31K
# modifications: Aib2, αMeF(2F)6, 4Pal10, αMeL13, Orn16, Aib20, Bzt22, D-Glu24, αMeY25, K17 and K31: K(AEEA2-(γ-Glu)-CO-(CH2)12-CO2H), C-terminal NH2
# B4: Example 139 (peptide)
# peptide: B1 peptide with E28K, K30G
# modifications: Aib2, αMeF(2F)6, 4Pal10, αMeL13, Orn16, Aib20, D-Glu24, αMeY25, K17 and K28: K(AEEA2-(γ-Glu)-CO-(CH2)10-CH3), C-terminal NH2
# B5: Example 14 (peptide)
# peptide: B1 peptide with K30G, P31K
# modifications: Aib2, αMeF(2F)6, 4Pal10, αMeL13, Orn16, Aib20, D-Glu24, αMeY25, K17 and K31: K(AEEA-(γ-Glu)-CO-(CH2)10-CH3), C-terminal NH2
# B6: Example 134 (peptide)
# peptide: B1 peptide
# modifications: Aib2, αMeF(2F)6, 4Pal10, αMeL13, Orn16, Aib20, D-Glu24, αMeY25, K17 and K30: K(AEEA2-(γ-Glu)-(4-(4-tert-butylphenyl)butanoyl)), C-terminal NH2
# B7: Example 135 (peptide)
# peptide: YXEGTXTSDXSIXLDXKAQXEFIXXLIEGGPSSGAPPPSK
# modifications: Aib2, αMeF(2F)6, 4Pal10, αMeL13, Orn16, Aib20, D-Glu24, αMeY25, K17 and K40: K(AEEA2-(γ-Glu)-(4-(4-tert-butylphenyl)butanoyl)), C-terminal NH2
# B8: Example 141 (peptide)
# peptide: B7 peptide
# modifications: Aib2, αMeF(2F)6, 4Pal10, αMeL13, Orn16, Aib20, D-Glu24, αMeY25, K17 and K40: K(AEEA2-(γ-Glu)-CO-(CH2)10-CH3), C-terminal NH2
# B9: Y-Aib-EGT-αMeF(2F)-TSD-4Pal-SI-αMeL-LD-Orn-K((γ-Glu)-(2-[2-(2-Amino-ethoxy)-ethoxy]-acetyl)2-CO-(CH2)12-CO2H)AQ-Aib-EFI-(D-Glu)-αMeY-LIEGGK((γ-Glu)-(2-[2-(2-Ami … (peptide)
# peptide: B1 peptide with K30G, P31K
# modifications: Aib2, αMeF(2F)6, 4Pal10, αMeL13, Orn16, K17(Z1), Aib20, D-Glu24, αMeY25, K31(Z1), C-term NH2; Z1=(γ-Glu)-AEEA2-CO-(CH2)12-CO2H
# B10: Y-Aib-EGT-αMeF(2F)-TSD-4Pal-SI-αMeL-LD-Orn-K((2-[2-(2-Amino-ethoxy)-ethoxy]-acetyl)2-(γ-Glu)-CO-(CH2)12-CO2H)AQ-Aib-EFI-(D-Glu)-αMeY-LIEGGK((2-[2-(2-Amino-ethox … (peptide)
# peptide: B1 peptide with K30G, P31K
# modifications: Aib2, αMeF(2F)6, 4Pal10, αMeL13, Orn16, K17(Z1), Aib20, D-Glu24, αMeY25, K31(Z1), C-term NH2; Z1=AEEA2-(γ-Glu)-CO-(CH2)12-CO2H
# B11: Y-Aib-EGT-αMeF(2F)-TSD-4Pal-SI-αMeL-LD-Orn-K((εK)-(2-[2-(2-Amino-ethoxy)-ethoxy]-acetyl)2-(γ-Glu)-CO-(CH2)12-CO2H)AQ-Aib-EFI-(D-Glu)-αMeY-LIEGGK((εK)-(2-[2-(2-A … (peptide)
# peptide: B1 peptide with K30G, P31K
# modifications: Aib2, αMeF(2F)6, 4Pal10, αMeL13, Orn16, K17(Z1), Aib20, D-Glu24, αMeY25, K31(Z1), C-term NH2; Z1=(εK)-AEEA2-(γ-Glu)-CO-(CH2)12-CO2H
# B12: Y-Aib-EGT-αMeF(2F)-TSD-4Pal-SI-αMeL-LD-Orn-K((2-[2-(2-Amino-ethoxy)-ethoxy]-acetyl)2-(εK)-(γ-Glu)-CO-(CH2)12-CO2H)AQ-Aib-EFI-(D-Glu)-αMeY-LIEGGK((2-[2-(2-Amino- … (peptide)
# peptide: B1 peptide with K30G, P31K
# modifications: Aib2, αMeF(2F)6, 4Pal10, αMeL13, Orn16, K17(Z1), Aib20, D-Glu24, αMeY25, K31(Z1), C-term NH2; Z1=AEEA2-(εK)-(γ-Glu)-CO-(CH2)12-CO2H
# B13: Y-Aib-EGT-αMeF(2F)-TSD-4Pal-SI-αMeL-LD-Orn-K((2-[2-(2-Amino-ethoxy)-ethoxy]-acetyl)2-(γ-Glu)-(10-(4-carboxyphenoxy)decanoyl))AQ-Aib-EFI-(D-Glu)-αMeY-LIEGGK((2-[ … (peptide)
# peptide: B1 peptide with K30G, P31K
# modifications: Aib2, αMeF(2F)6, 4Pal10, αMeL13, Orn16, K17(Z1), Aib20, D-Glu24, αMeY25, K31(Z1), C-term NH2; Z1=AEEA2-(γ-Glu)-(10-(4-carboxyphenoxy)decanoyl)
# B14: Y-Aib-EGT-αMeF(2F)-TSD-4Pal-SI-αMeL-LD-Orn-K((2-[2-(2-Amino-ethoxy)-ethoxy]-acetyl)3-(γ-Glu)-CO-(CH2)12-CO2H)AQ-Aib-EFI-(D-Glu)-αMeY-LIEGGK((2-[2-(2-Amino-ethox … (peptide)
# peptide: B1 peptide with K30G, P31K
# modifications: Aib2, αMeF(2F)6, 4Pal10, αMeL13, Orn16, K17(Z1), Aib20, D-Glu24, αMeY25, K31(Z1), C-term NH2; Z1=AEEA3-(γ-Glu)-CO-(CH2)12-CO2H
# B15: Y-Aib-EGT-αMeF(2F)-TSD-4Pal-SI-αMeL-LD-Orn-K((2-[2-(2-Amino-ethoxy)-ethoxy]-acetyl)2-(γ-Glu)-CO-(CH2)10-CH3)AQ-Aib-EFI-(D-Glu)-αMeY-LIK((2-[2-(2-Amino-ethoxy)-e … (peptide)
# peptide: B1 peptide with E28K, K30G
# modifications: Aib2, αMeF(2F)6, 4Pal10, αMeL13, Orn16, K17(Z1), Aib20, D-Glu24, αMeY25, K28(Z1), C-term NH2; Z1=AEEA2-(γ-Glu)-CO-(CH2)10-CH3
# B16: Y-Aib-EGT-αMeF(2F)-TSD-4Pal-SI-αMeL-LD-Orn-K((2-[2-(2-Amino-ethoxy)-ethoxy]-acetyl)2-(γ-Glu)-CO-(CH2)12-CO2H)AQ-Aib-K((2-[2-(2-Amino-ethoxy)-ethoxy]-acetyl)2-(γ … (peptide)
# peptide: B1 peptide with E21K, K30G
# modifications: Aib2, αMeF(2F)6, 4Pal10, αMeL13, Orn16, K17(Z1), Aib20, K21(Z1), D-Glu24, αMeY25, C-term NH2; Z1=AEEA2-(γ-Glu)-CO-(CH2)12-CO2H
# B17: Y-Aib-EGT-αMeF(2F)-TSD-4Pal-SK((2-[2-(2-Amino-ethoxy)-ethoxy]-acetyl)2-(γ-Glu)-CO-(CH2)12-CO2H)-αMeL-LD-Orn-K((2-[2-(2-Amino-ethoxy)-ethoxy]-acetyl)2-(γ-Glu)-CO … (peptide)
# peptide: B1 peptide with I12K, K30G
# modifications: Aib2, αMeF(2F)6, 4Pal10, K12(Z1), αMeL13, Orn16, K17(Z1), Aib20, D-Glu24, αMeY25, C-term NH2; Z1=AEEA2-(γ-Glu)-CO-(CH2)12-CO2H
# B18: Y-Aib-EGT-αMeF(2F)-TSD-4Pal-SI-αMeL-LD-Orn-K((2-[2-(2-Amino-ethoxy)-ethoxy]-acetyl)2-(γ-Glu)-CO-(CH2)12-CO2H)AQ-Aib-EFI-(D-Glu)-αMeY-LIK((2-[2-(2-Amino-ethoxy)- … (peptide)
# peptide: B1 peptide with E28K, K30G
# modifications: Aib2, αMeF(2F)6, 4Pal10, αMeL13, Orn16, K17(Z1), Aib20, D-Glu24, αMeY25, K28(Z1), C-term NH2; Z1=AEEA2-(γ-Glu)-CO-(CH2)12-CO2H
# B19: Y-Aib-EGT-αMeF(2F)-TSD-4Pal-SI-αMeL-LD-Orn-K((2-[2-(2-Amino-ethoxy)-ethoxy]-acetyl)2-(γ-Glu)-CO-(CH2)12-CO2H)AQ-Aib-EFI-(D-Glu)-αMeY-LIEGK((2-[2-(2-Amino-ethoxy … (peptide)
# peptide: B1 peptide
# modifications: Aib2, αMeF(2F)6, 4Pal10, αMeL13, Orn16, K17(Z1), Aib20, D-Glu24, αMeY25, K30(Z1), C-term NH2; Z1=AEEA2-(γ-Glu)-CO-(CH2)12-CO2H
# Biological target: T1, human GIP receptor
# Experiment: cell-based or functional assay
Binder,"EC50, cAMP [nM]","Emax, cAMP [%]"
B1,0.0226,97.1
B2,0.0113,
B3,0.0229,
B4,0.0108,
B5,0.00802,
B6,0.0238,
B7,0.0184,92.3
B8,0.00723,98.8

# Biological target: human GLP-1 receptor (human, UniProt P43220 24-463)
# Experiment: cell-based or functional assay
Binder,"EC50, cAMP [nM]","Emax, cAMP [%]"
B1,5.06,
B2,0.245,
B3,0.338,93.5
B4,0.141,111
B5,0.0884,
B6,0.577,
B7,0.271,
B8,0.0693,

# Biological target: human glucagon receptor (human, UniProt P47871 26-477)
# Experiment: cell-based or functional assay
row,Binder,"EC50, cAMP [nM]"
1,B1,> 9950
2,B2,> 9950
3,B3,> 9950
4,B4,> 9950
5,B5,> 9950
6,B6,> 9950
7,B7,> 9950
8,B8,> 9950

# Biological target: T2, human GIP receptor
# Experiment: SPA competition vs [125I]-GIP, hGIPR membranes
# Experimental: The binding buffer contains 25 mM HEPES, pH 7.4, 2.5 mM CaCl₂, 1 mM MgCl₂, 0.1% (w/v) bacitracin, 0.003% (w/v) TWEEN®-20, and Roche Complete™ Protease Inhibitors without EDTA. […] Plates are sealed and mixed on a plate shaker (setting 6) for 1 minute and read with a PerkinElmer Trilux MicroBeta® scintillation counter after 2.5 to 12 hours of incubation/settling time at room temperature.
# (§1) Data are analyzed using four-parameter (curve maximum, curve minimum, IC₅₀, Hill slope) nonlinear regression routines (Genedata Screener, version 12.0.4, Genedata AG, Basal, Switzerland). […] Values for Kᵢ are reported as the geometric mean, with error expressed as the standard error of the mean (SEM) and n is equal to the number of independent replicates (determined in assays performed on different days). Geometric Means are calculated as follows: […]
row,Binder,Ki [nM]
1,B9,0.108
2,B10,0.088
3,B11,0.171
4,B12,0.131
5,B13,0.0446
6,B14,0.0653
7,B15,0.0415
8,B16,0.0629
9,B17,0.0972
10,B18,0.0649
11,B19,0.0769

# Biological target: T3, human GLP-1 receptor (human, UniProt P43220 24-463)
# T3 construct: whole, on cells; also called hGLP-1R; human glucagon-like peptide-1 receptor
# Experiment: SPA competition vs [125I]-GLP-1, hGLP-1R membranes
# Experimental: The binding buffer contains 25 mM HEPES, pH 7.4, 2.5 mM CaCl₂, 1 mM MgCl₂, 0.1% (w/v) bacitracin, 0.003% (w/v) TWEEN®-20, and Roche Complete™ Protease Inhibitors without EDTA.
# as §1
row,Binder,Ki [nM]
1,B9,2.06
2,B10,2.33
3,B11,2.22
4,B12,2.81
5,B14,2.66
6,B15,0.268
7,B16,2.11
8,B17,3.01
9,B18,3.18
10,B19,8.41
